The experiment has as its target T1, GST-CypA (UniProt P62937 1-165).
T1 construct: cyclophilin A fused to GST; source: E. coli BL21, purified on glutathione-agarose
In words: pull-down; GST proteins (GST, GST-CypA, GST-FKBP12) on glutathione sepharose (10 µl) added to HEK 293 T lysate (50 µl diluted to 500 µL with lysis buffer) of cells transfected with an empty (pCi) or Tat vector; 1 h at 4 °C; three washes with lysis buffer; western blots. As to conditions: one partner purified.

T1 sequence (P62937 whole entry, the tested form may be a part): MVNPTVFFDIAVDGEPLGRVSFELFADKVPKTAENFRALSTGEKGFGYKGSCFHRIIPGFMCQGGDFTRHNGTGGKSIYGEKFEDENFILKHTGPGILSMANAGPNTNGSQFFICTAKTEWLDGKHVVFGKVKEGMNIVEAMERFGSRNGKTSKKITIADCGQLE

B1: DHHC-20 (enzyme, human (endogenous in HEK 293 T), UniProt Q5W0Z9 1-365, looked up)
chain: MAPWTLWRCCQRVVGWVPVLFITFVVVWSYYAYVVELCVFTIFGNEENGKTVVYLVAFHLFFVMFVWSYWMTIFTSPASPSKEFYLSNSEKERYEKEFSQERQQEILRRAARALPIYTTSASKTIRYCEKCQLIKPDRAHHCSACDSCILKMDHHCPWVNNCVGFSNYKFFLLFLLYSLLYCLFVAATVLEYFIKFWTNELTDTRAKFHVLFLFFVSAMFFISVLSLFSYHCWLVGKNRTTIESFRAPTFSYGPDGNGFSLGCSKNWRQVFGDEKKYWLLPIFSSLGDGCSFPTRLVGMDPEQASVTNQNEYARSSGSNQPFPIKPLSESKNRLLDSESQWLENGAEEGIVKSGTNNHVTVAIEN
notes: S-acyl transferase DHHC-20, detected with anti-DHHC-20 (Sigma SAB 4501054); also called S-acyl transferase DHHC-20; source: endogenous, HEK 293 T lysate
Consider B1, for which the “fold more pulled down from extracts of Tat-transfected cells against empty-vector cells” value is about 4 fold.

The values above are taken from article PMC5993824 (Nature Communications, 2018).
